Test results from US11814435B2, “Therapeutic antibodies and their uses” (PFIZER INC., priority 2015, dated 2023).

T1: hBCMA (human BCMA) (Homo sapiens, UniProt Q02223)
T1 sequence (Q02223 1-184): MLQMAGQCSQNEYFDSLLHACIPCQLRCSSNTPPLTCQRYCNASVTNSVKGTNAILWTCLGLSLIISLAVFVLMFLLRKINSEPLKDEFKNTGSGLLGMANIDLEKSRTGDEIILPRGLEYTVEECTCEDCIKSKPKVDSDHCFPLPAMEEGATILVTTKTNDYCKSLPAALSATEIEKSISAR

B1: L3.PY/L1.AH/H2.LT: anti-BCMA antibody (antibody, V domains shown)
VH: EVQLLESGGGLVQPGGSLRLSCAASGFTFGSYAMTWVRQAPGKGLEWVSAISLTGGNTFYADSVKGRFTISRDNSKNTLYLQMNSLRAEDTAVYYCARVSPIASGMDYWGQGTLVTVSS
VL: EIVLTQSPGTLSLSPGERATLSCRASQSVSAHYLAWYQQKPGQAPRLLIYGASSRATGIPDRFSGSGSGTDFTLTISRLEPEDFAVYYCQHYPYPPSFTFGQGTKVEIK
B2: L3.PY/L1.AH/H2.QL: anti-BCMA antibody (antibody, V domains shown)
VH: EVQLLESGGGLVQPGGSLRLSCAASGFTFGSYAMTWVRQAPGKGLEWVSAISGSGGNTFYADQLKGRFTISRDNSKNTLYLQMNSLRAEDTAVYYCARVSPIASGMDYWGQGTLVTVSS
VL: EIVLTQSPGTLSLSPGERATLSCRASQSVSAHYLAWYQQKPGQAPRLLIYGASSRATGIPDRFSGSGSGTDFTLTISRLEPEDFAVYYCQHYPYPPSFTFGQGTKVEIK
B3: L3.PY/L1.FF/H2.YQ: anti-BCMA antibody (antibody, V domains shown)
VH: EVQLLESGGGLVQPGGSLRLSCAASGFTFGSYAMTWVRQAPGKGLEWVSAISYQGGNTFYADSVKGRFTISRDNSKNTLYLQMNSLRAEDTAVYYCARVSPIASGMDYWGQGTLVTVSS
VL: EIVLTQSPGTLSLSPGERATLSCRASQSVSSFFLAWYQQKPGQAPRLLIYGASSRATGIPDRFSGSGSGTDFTLTISRLEPEDFAVYYCQHYPYPPSFTFGQGTKVEIK
B4: L3.PY/L1.FF/H3.AE: anti-BCMA antibody (antibody, V domains shown)
VH: EVQLLESGGGLVQPGGSLRLSCAASGFTFGSYAMTWVRQAPGKGLEWVSAISGSGGNTFYADSVKGRFTISRDNSKNTLYLQMNSLRAEDTAVYYCARVSPIAAEMDYWGQGTLVTVSS
VL: EIVLTQSPGTLSLSPGERATLSCRASQSVSSFFLAWYQQKPGQAPRLLIYGASSRATGIPDRFSGSGSGTDFTLTISRLEPEDFAVYYCQHYPYPPSFTFGQGTKVEIK
B5: L3.PY/L1.FF/H2.QR: anti-BCMA antibody (antibody, V domains shown)
VH: EVQLLESGGGLVQPGGSLRLSCAASGFTFGSYAMTWVRQAPGKGLEWVSAISGSGGNTFYADQRKGRFTISRDNSKNTLYLQMNSLRAEDTAVYYCARVSPIASGMDYWGQGTLVTVSS
VL: EIVLTQSPGTLSLSPGERATLSCRASQSVSSFFLAWYQQKPGQAPRLLIYGASSRATGIPDRFSGSGSGTDFTLTISRLEPEDFAVYYCQHYPYPPSFTFGQGTKVEIK
B6: L3.PY/L1.AH/H3.YA: anti-BCMA antibody (antibody, V domains shown)
VH: EVQLLESGGGLVQPGGSLRLSCAASGFTFGSYAMTWVRQAPGKGLEWVSAISGSGGNTFYADSVKGRFTISRDNSKNTLYLQMNSLRAEDTAVYYCARVSPIYAGMDYWGQGTLVTVSS
VL: EIVLTQSPGTLSLSPGERATLSCRASQSVSAHYLAWYQQKPGQAPRLLIYGASSRATGIPDRFSGSGSGTDFTLTISRLEPEDFAVYYCQHYPYPPSFTFGQGTKVEIK
B7: L3.PY/L1.FF/H2.LT: anti-BCMA antibody (antibody, V domains shown)
VH: EVQLLESGGGLVQPGGSLRLSCAASGFTFGSYAMTWVRQAPGKGLEWVSAISLTGGNTFYADSVKGRFTISRDNSKNTLYLQMNSLRAEDTAVYYCARVSPIASGMDYWGQGTLVTVSS
VL: EIVLTQSPGTLSLSPGERATLSCRASQSVSSFFLAWYQQKPGQAPRLLIYGASSRATGIPDRFSGSGSGTDFTLTISRLEPEDFAVYYCQHYPYPPSFTFGQGTKVEIK
B8: L3.PY/L1.AH/H3.TAQ: anti-BCMA antibody (antibody, V domains shown)
VH: EVQLLESGGGLVQPGGSLRLSCAASGFTFGSYAMTWVRQAPGKGLEWVSAISGSGGNTFYADSVKGRFTISRDNSKNTLYLQMNSLRAEDTAVYYCTRVSPIAAQMDYWGQGTLVTVSS
VL: EIVLTQSPGTLSLSPGERATLSCRASQSVSAHYLAWYQQKPGQAPRLLIYGASSRATGIPDRFSGSGSGTDFTLTISRLEPEDFAVYYCQHYPYPPSFTFGQGTKVEIK
B9: L3.PY/L1.FF/H2.HA: anti-BCMA antibody (antibody, V domains shown)
VH: EVQLLESGGGLVQPGGSLRLSCAASGFTFGSYAMTWVRQAPGKGLEWVSAISHAGGNTFYADSVKGRFTISRDNSKNTLYLQMNSLRAEDTAVYYCARVSPIASGMDYWGQGTLVTVSS
VL: EIVLTQSPGTLSLSPGERATLSCRASQSVSSFFLAWYQQKPGQAPRLLIYGASSRATGIPDRFSGSGSGTDFTLTISRLEPEDFAVYYCQHYPYPPSFTFGQGTKVEIK
B10: L3.PY/L1.FF/H2.DY: anti-BCMA antibody (antibody, V domains shown)
VH: EVQLLESGGGLVQPGGSLRLSCAASGFTFGSYAMTWVRQAPGKGLEWVSAIDYSGGNTFYADSVKGRFTISRDNSKNTLYLQMNSLRAEDTAVYYCARVSPIASGMDYWGQGTLVTVSS
VL: EIVLTQSPGTLSLSPGERATLSCRASQSVSSFFLAWYQQKPGQAPRLLIYGASSRATGIPDRFSGSGSGTDFTLTISRLEPEDFAVYYCQHYPYPPSFTFGQGTKVEIK
B11: L3.PY/L1.AH/H2.HA: anti-BCMA antibody (antibody, V domains shown)
VH: EVQLLESGGGLVQPGGSLRLSCAASGFTFGSYAMTWVRQAPGKGLEWVSAISHAGGNTFYADSVKGRFTISRDNSKNTLYLQMNSLRAEDTAVYYCARVSPIASGMDYWGQGTLVTVSS
VL: EIVLTQSPGTLSLSPGERATLSCRASQSVSAHYLAWYQQKPGQAPRLLIYGASSRATGIPDRFSGSGSGTDFTLTISRLEPEDFAVYYCQHYPYPPSFTFGQGTKVEIK
B12: L3.PY/L1.FF/H2.QL: anti-BCMA antibody (antibody, V domains shown)
VH: EVQLLESGGGLVQPGGSLRLSCAASGFTFGSYAMTWVRQAPGKGLEWVSAISGSGGNTFYADQLKGRFTISRDNSKNTLYLQMNSLRAEDTAVYYCARVSPIASGMDYWGQGTLVTVSS
VL: EIVLTQSPGTLSLSPGERATLSCRASQSVSSFFLAWYQQKPGQAPRLLIYGASSRATGIPDRFSGSGSGTDFTLTISRLEPEDFAVYYCQHYPYPPSFTFGQGTKVEIK
B13: L3.PY/L1.FF/H3.YA: anti-BCMA antibody (antibody, V domains shown)
VH: EVQLLESGGGLVQPGGSLRLSCAASGFTFGSYAMTWVRQAPGKGLEWVSAISGSGGNTFYADSVKGRFTISRDNSKNTLYLQMNSLRAEDTAVYYCARVSPIYAGMDYWGQGTLVTVSS
VL: EIVLTQSPGTLSLSPGERATLSCRASQSVSSFFLAWYQQKPGQAPRLLIYGASSRATGIPDRFSGSGSGTDFTLTISRLEPEDFAVYYCQHYPYPPSFTFGQGTKVEIK
B14: L3.PY/L1.AH/H3.AE: anti-BCMA antibody (antibody, V domains shown)
VH: EVQLLESGGGLVQPGGSLRLSCAASGFTFGSYAMTWVRQAPGKGLEWVSAISGSGGNTFYADSVKGRFTISRDNSKNTLYLQMNSLRAEDTAVYYCARVSPIAAEMDYWGQGTLVTVSS
VL: EIVLTQSPGTLSLSPGERATLSCRASQSVSAHYLAWYQQKPGQAPRLLIYGASSRATGIPDRFSGSGSGTDFTLTISRLEPEDFAVYYCQHYPYPPSFTFGQGTKVEIK

Assays:
cyBCMA = test: Kinetics and affinity of cyBCMA/human IgG interactions by SPR (Bio-Rad Proteon XPR36); type: binding, cynomolgus; details: 37° C.
hBCMA (human BCMA) = molecular target: T1, hBCMA (human BCMA); test: Kinetics and affinity of hBCMA/human IgG interactions by SPR (Bio-Rad Proteon XPR36); type: binding; details: huBCMA, 37° C.
How it was run: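 Captured here: binding of soluble BCMA to covalently coupled anti-BCMA IgGs, measured at 37° C. or 25° C. with a five-point single-cycle series (top 50 nM, fivefold dilution) and extended 2 h off-rate phase, analyzed by a 1:1 mass-transport-corrected model.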

Molecule | ka (1/Ms) cyBCMA @ 37° C. (cyBCMA) [M⁻¹ s⁻¹] | kd (1/s) cyBCMA @37° C. (cyBCMA) [s⁻¹] | ka (1/Ms) huBCMA @ 37° C. (hBCMA (human BCMA)) [M⁻¹ s⁻¹] | kd (1/s) huBCMA @37° C. (hBCMA (human BCMA)) [s⁻¹]
B1 | 2.19e+06 | 0.00296 | 3.16e+06 | 0.00123
B2 | 2.62e+06 | 0.00955 | 3.04e+06 | 0.0016
B3 | 2.19e+06 | 0.00326 | 3.32e+06 | 0.00152
B4 | 2.85e+06 | 0.00501 | 3.82e+06 | 0.00263
B5 | 2.55e+06 | 0.00421 | 3.47e+06 | 0.00177
B6 | 2.37e+06 | 0.00526 | 3e+06 | 0.0015
B7 | 2.19e+06 | 0.00341 | 3.3e+06 | 0.00167
B8 | 2.28e+06 | 0.00302 | 3.27e+06 | 0.00119
B9 | 2.33e+06 | 0.00417 | 3.49e+06 | 0.00219
B10 | 2.66e+06 | 0.005 | 4.14e+06 | 0.00271
B11 | 2.58e+06 | 0.00439 | 3.33e+06 | 0.00181
B12 | 2.36e+06 | 0.00449 | 3.48e+06 | 0.0014
B13 | 2.46e+06 | 0.00416 | 3.5e+06 | 0.0018
B14 | 2.25e+06 | 0.00356 | 3.32e+06 | 0.00173
